Measured values published in patent publication US7919262B2, “14-3-3 proteins for diagnosis of Parkinson's disease” (The UAB Research Foundation, priority 2007, dated 2011).

How the values were obtained:
H4 cells = experiment: α-syn toxicity assay, adenylate kinase released into the media; type: cell-based; conditions: co-transfected with wildtype α-syn; 24 hours after transfection; vs empty vector
Protocol: Briefly, H4 cells were transfected with wildtype α-syn and each of the 14-3-3 polypeptide isoforms or empty vector controls as discussed above. Twenty-four hours after transfection, cell death was assayed by adenylate kinase activity in the media (n=4, *p<0.05, **p<0.01, ***p<0.001).
Primers against each of the human 14-3-3 isoforms were designed using Primer3. Primers against 14-3-3β (NM_018753) were 5′ […] 3′ (forward; SEQ ID NO. 9) and 5′ […] 3′ (reverse; SEQ ID NO. 10). Primers against 14-3-3ε (NM_009536) were 5′ […] 3′ (forward; SEQ ID NO. 11) and 5′ […] 3′ (reverse; SEQ ID NO. 12). Primers against 14-3-3γ (NM_018871) were 5′ […] 3′ (forward; SEQ ID NO. 13) and 5′ […] 3′ (reverse; SEQ ID NO. 14). Primers against 14-3-3η (NM_011738) were 5′ […] 3′ (forward; SEQ ID NO. 15) and 5′ […] 3′ (reverse; SEQ ID NO. 16). Primers against 14-3-3θ (NM_011739) were 5′ […] 3′ (forward; SEQ ID NO. 17) and 5′ […] 3′ (reverse; SEQ ID NO. 18). Primers against 14-3-3σ (NM_018754) were 5′ […] 3′ (forward; SEQ ID NO. 19) and 5′ […] 3′ (reverse; SEQ ID NO. 20). Primers against 14-3-3ζ(NM_011740) were 5′ […] 3′ (forward; SEQ ID NO. 21) and 5′ […] 3′ (reverse; SEQ ID NO. 22). Primers against GAPDH were 5′ tggtgaagcaggeatctga 3′ (forward; SEQ ID NO. 23) and 5′ […] […] All cells stained for α-syn were scored as positive or negative for α-syn aggregates, with the rater blind to experimental condition. • α-syn toxicity assay H4 cells were transfected with α-syn and either empty vector control or a 14-3-3 isoform using Superfect transfection reagent (Qiagen). 24 hours after transfection, toxicity was measured by the amount of adenylate kinase released into the media using the ToxiLight™ kit (Cambrex). • Creation of stable cell lines Each 14-3-3 isoform was subcloned into the mammalian expression vector mcDNA3.1/V5-His (Invitrogen). […] Protein concentrations of supernatants were determined by the bicinchoninic acid assay (BCA; Pierce, Rockford, Ill.). […]

naïve M17 cells = experiment: Rotenone toxicity after transient transfection, scoring of apoptotic nuclei; type: cell-based, human; conditions: rotenone 0, 0.2 or 1 μM for 24 hours, vs control transfection
Protocol: FIGS. 6A-D show M17 cells overexpressing 14-3-3θ are resistant to rotenone treatment. Cell lines stably-transfected with either 14-3-3θ or empty vector were treated with varying concentrations of rotenone (0-25 μM) for 24 hours (FIG. 6A), 30 hours (FIG. 6B), or 48 hours (FIG. 6C). Cell death was assayed by LDH release into the culture media. LDH release into media was normalized to total LDH release for each well. The 14-3-3θ-overexpressing line was more resistant to rotenone in a dose-dependent manner compared to control stable cells at all time points tested. […] Rater was blind to experimental condition. n=8 for each experimental condition. *p<0.05, ***p<0.001 (Bonferroni's multiple comparison test).
The effects of 14-3-3θ overexpression on rotenone toxicity was also examined by transient transfection of this isoform into naïve M17 cells. Briefly, M17 cells were transfected with V5-tagged 14-3-3θ isoform or enhanced yellow fluorescent protein (EYFP) (control) and were treated with rotenone for 24 hours at 0, 0.2, or 1 μM rotenone. Because of the relatively low rates of transfection, after the treatment period cells were fixed and stained against V5 (or GFP in the case of control), followed by Hoechsht 33342 staining. With the rater blind to experimental condition, the nuclei of cells that stained for V5 or GFP were scored as normal or apoptotic.

[1] = test system: Transgenic C. elegans worms that overexpress human wildtype α-syn; experiment: Dopaminergic neuron loss in α-syn transgenic worm model; type: in vivo; conditions: human 14-3-3θ overexpressed along with α-syn
From the text: FIG. 10. Overexpression of 14-3-3θ protects against dopaminergic cell loss in the α-syn transgenic C. elegans worm model. Double transgenic worms were created in which the 14-3-3θ isoform was overexpressed along with α-syn.
We turned to the C. elegans model of PD, in which human wildtype α-syn is overexpressed. […] Double transgenic worms were created in which the 14-3-3θ isoform was overexpressed along with α-syn. […] In contrast, 18.9% of worms that overexpressed human 14-3-3θ along with α-syn had all six dopaminergic neurons at seven days (FIG. 10; p<0.001 compared to α-syn worms). 12.9% of worms had the full anterior complement of dopaminergic neurons at 10 days (FIG. 10; p<0.00001).

B1: 14-3-3ζ: 14-3-3 polypeptide ζ isoform, overexpressed from expression vector (protein, UniProt P63104 1-245, looked up)
14-3-3 protein zeta/delta: MDKNELVQKAKLAEQAERYDDMAACMKSVTEQGAELSNEERNLLSVAYKNVVGARRSSWRVVSSIEQKTEGAEKKQQMAREYREKIETELRDICNDVLSLLEKFLIPNASQAESKVFYLKMKGDYYRYLAEVAAGDDKKGIVDQSQQAYQEAFEISKKEMQPTHPIRLGLALNFSVFYYEILNSPEKACSLAKTAFDEAIAELDTLSEESYKDSTLIMQLLRDNLTLWTSDTQGDEAEAGEGGEN
Question: Which “effect on α-syn dependent cell death (adenylate kinase activity in the media)” value (H4 cells) does the source give for B1 here?
Answer: The value was “protective effects”.

B2: 14-3-3θ: 14-3-3 polypeptide θ isoform, overexpressed from V5/His-tagged pcDNA3.1 vector (or as transgene in C. elegans) (protein, UniProt P27348 1-245, looked up)
14-3-3 protein theta: MEKTELIQKAKLAEQAERYDDMATCMKAVTEQGAELSNEERNLLSVAYKNVVGGRRSAWRVISSIEQKTDTSDKKLQLIKDYREKVESELRSICTTVLELLDKYLIANATNPESKVFYLKMKGDYFRYLAEVACGDDRKQTIDNSQGAYQEAFDISKKEMQPTHPIRLGLALNFSVFYYEILNNPELACTLAKTAFDEAIAELDTLNEDSYKDSTLIMQLLRDNLTLWTSDSAGEECDAAEGAEN
modifications: V5/His tag
Question: B2 was tested. Which “effect on α-syn dependent cell death (adenylate kinase activity in the media)” value (H4 cells) did it give?
Answer: The value was “protective effects”.

Question: What about the “cell death (apoptotic nuclei) in response to rotenone treatment” value (naïve M17 cells) of the same molecule?
Answer: The value was “decreased cell death”.

Question: What about the “worms with the full anterior complement of dopaminergic neurons” value ([1]; 10 days) of the same molecule?
Answer: Its value is 12.9%.

Question: What about the “worms with all six anterior dopaminergic neurons present” value ([1]; seven days) of the same molecule?
Answer: The value was 18.9%.
